The source of these data is patent publication US20200157212A1 (Pfizer, published 2020).

As usually defined, the Kd is the equilibrium constant for the complex coming apart. Read a high Kd as weaker binding. In general, IC50 refers to the midpoint of a concentration-inhibition curve.

To fix the notation:
T1: Human ROBO2 Ig1-Ig2-His (human, UniProt Q9HCK4 31-220)
T1 construct: the His tag is named only in the SPR paragraphs; the Octet and ELISA paragraphs print 'ROBO2 Ig1-Ig2' without a tag; also called ROBO2 Ig1-2; Human ROBO2 Ig 1,2
T1 sequence: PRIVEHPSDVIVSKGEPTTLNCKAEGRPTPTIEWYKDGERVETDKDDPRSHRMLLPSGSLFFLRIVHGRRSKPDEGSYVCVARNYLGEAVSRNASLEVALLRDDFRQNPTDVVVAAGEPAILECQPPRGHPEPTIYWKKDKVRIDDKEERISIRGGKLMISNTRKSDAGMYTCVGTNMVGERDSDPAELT

T2: Terbium (Tb) labeled-SNAP tagged ROBO2 expressed on HEK293 cells (Homo sapiens (Human), UniProt Q9HCK4 22-1378, terbium label on the SNAP tag)
T2 construct: also called Tb-labeled ROBO2 cells; ROBO2 expressing cells; not shown: SNAP tag
T2 sequence: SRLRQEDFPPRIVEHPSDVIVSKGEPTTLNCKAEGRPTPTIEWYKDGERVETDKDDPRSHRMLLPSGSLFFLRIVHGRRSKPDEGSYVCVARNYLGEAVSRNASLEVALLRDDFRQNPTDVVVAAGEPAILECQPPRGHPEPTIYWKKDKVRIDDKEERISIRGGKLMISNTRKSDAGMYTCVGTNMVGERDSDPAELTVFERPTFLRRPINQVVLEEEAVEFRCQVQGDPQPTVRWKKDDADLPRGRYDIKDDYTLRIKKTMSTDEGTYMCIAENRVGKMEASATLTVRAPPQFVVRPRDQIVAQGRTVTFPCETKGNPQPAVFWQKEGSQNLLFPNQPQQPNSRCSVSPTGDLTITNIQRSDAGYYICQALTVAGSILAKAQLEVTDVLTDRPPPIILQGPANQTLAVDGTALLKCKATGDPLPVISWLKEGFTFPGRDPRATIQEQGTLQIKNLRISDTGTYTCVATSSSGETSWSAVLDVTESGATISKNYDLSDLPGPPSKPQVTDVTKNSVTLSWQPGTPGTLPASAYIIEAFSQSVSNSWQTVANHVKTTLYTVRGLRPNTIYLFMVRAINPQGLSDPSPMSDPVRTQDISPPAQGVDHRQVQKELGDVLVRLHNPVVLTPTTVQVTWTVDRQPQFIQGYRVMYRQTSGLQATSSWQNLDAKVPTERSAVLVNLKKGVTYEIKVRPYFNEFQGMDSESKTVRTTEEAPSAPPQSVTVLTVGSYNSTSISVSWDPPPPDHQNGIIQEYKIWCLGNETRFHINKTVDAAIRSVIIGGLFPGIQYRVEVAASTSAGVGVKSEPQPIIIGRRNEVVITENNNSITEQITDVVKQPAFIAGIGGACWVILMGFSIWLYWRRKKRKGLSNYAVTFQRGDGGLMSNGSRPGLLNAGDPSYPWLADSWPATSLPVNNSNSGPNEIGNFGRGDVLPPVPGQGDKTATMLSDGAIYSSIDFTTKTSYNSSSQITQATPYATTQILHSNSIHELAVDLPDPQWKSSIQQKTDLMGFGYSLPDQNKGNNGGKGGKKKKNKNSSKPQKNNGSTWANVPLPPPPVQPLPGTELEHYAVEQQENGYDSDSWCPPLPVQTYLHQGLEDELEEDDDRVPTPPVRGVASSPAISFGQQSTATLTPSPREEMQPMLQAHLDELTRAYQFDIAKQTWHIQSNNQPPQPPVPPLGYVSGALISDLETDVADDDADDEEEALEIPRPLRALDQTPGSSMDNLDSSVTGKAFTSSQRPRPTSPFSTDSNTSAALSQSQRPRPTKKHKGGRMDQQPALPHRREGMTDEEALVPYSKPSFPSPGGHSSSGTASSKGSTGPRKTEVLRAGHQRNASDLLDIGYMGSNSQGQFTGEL

B1: Abcs35-I (antibody, human IgG1, kappa)
heavy: EVQLVQSGAEVKKPGASVKVSCKASGYTFTGYYMHWVRQAPGQGLEWMGWINPKNGDTEFPQKFQGRVTMTRDTSISTAYMDLSRLRSDDTAVYYCARESGDDAFDIWGQGTMVTVSSASTKGPSVFPLAPSSKSTSGGTAALGCLVKDYFPEPVTVSWNSGALTSGVHTFPAVLQSSGLYSLSSVVTVPSSSLGTQTYICNVNHKPSNTKVDKKVEPKSCDKTHTCPPCPAPEAAGAPSVFLFPPKPKDTLMISRTPEVTCVVVDVSHEDPEVKFNWYVDGVEVHNAKTKPREEQYNSTYRVVSVLTVLHQDWLNGKEYKCKVSNKALPAPIEKTISKAKGQPREPQVYTLPPSREEMTKNQVSLTCLVKGFYPSDIAVEWESNGQPENNYKTTPPVLDSDGSFFLYSKLTVDKSRWQQGNVFSCSVMHEALHNHYTQKSLSLSPGK
light: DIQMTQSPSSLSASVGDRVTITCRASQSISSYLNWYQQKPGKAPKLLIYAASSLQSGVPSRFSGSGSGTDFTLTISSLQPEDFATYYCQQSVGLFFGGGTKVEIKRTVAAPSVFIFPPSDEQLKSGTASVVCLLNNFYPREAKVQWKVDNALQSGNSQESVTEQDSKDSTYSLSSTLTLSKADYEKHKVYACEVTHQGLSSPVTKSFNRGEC
notes: germlined variant of Abcs35
B2: Abcs35-M (antibody, human IgG1, kappa)
heavy: B1 heavy with E1Q
light: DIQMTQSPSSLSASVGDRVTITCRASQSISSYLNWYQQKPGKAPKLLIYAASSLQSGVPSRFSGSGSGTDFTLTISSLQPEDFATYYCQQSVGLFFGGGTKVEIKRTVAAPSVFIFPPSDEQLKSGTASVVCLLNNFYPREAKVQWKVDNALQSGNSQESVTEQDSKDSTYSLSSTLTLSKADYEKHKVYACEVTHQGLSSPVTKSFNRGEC
notes: germlined variant of Abcs35
B3: Abcs35-O (antibody, human IgG1, kappa)
heavy: B1 heavy with E1Q, D82E
light: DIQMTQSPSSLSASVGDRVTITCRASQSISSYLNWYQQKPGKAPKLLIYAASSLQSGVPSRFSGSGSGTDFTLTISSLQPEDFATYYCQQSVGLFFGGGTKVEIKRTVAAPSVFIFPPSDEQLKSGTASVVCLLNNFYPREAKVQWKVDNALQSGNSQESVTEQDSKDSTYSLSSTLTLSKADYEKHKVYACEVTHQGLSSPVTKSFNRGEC
notes: germlined variant of Abcs35
B4: Abcs35-N (antibody, human IgG1, kappa)
heavy: B1 heavy with E1Q, S77T, D82E
light: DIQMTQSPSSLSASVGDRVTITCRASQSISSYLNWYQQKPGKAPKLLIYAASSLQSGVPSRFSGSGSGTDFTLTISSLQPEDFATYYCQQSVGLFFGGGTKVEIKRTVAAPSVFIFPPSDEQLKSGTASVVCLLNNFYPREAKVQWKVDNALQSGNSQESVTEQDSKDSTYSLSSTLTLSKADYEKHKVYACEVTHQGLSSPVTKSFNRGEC
notes: germlined variant of Abcs35
B5: Abcs35-K (antibody, human IgG1, kappa)
heavy: B1 heavy with D82E
light: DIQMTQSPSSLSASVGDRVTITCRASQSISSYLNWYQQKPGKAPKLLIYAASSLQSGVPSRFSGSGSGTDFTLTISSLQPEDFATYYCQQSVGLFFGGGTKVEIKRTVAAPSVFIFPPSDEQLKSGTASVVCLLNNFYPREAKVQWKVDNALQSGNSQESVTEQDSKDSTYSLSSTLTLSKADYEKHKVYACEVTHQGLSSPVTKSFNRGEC
notes: germlined variant of Abcs35
B6: Abcs35-L (antibody, human IgG1, kappa)
heavy: B1 heavy with E1Q, S77T
light: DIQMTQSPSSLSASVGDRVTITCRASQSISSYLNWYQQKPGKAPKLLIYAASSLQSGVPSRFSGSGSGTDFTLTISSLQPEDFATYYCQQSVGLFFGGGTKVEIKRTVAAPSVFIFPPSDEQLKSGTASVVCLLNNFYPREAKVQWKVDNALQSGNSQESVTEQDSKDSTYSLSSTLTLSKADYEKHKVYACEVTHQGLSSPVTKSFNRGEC
notes: germlined variant of Abcs35

Substitutions are numbered along the chain they refer to.

The first assay deals with T1, Human ROBO2 Ig1-Ig2-His. Put plainly: SPR, antibody on CM5 chip, ROBO2 Ig1-Ig2-His. As for the experimental part: Based upon several criteria, Abcs25 and Abcs35 were selected for further characterization. Using flow cytometry, improvement in the binding EC₅₀ to human ROBO2 relative to the parental 93H2 was evaluated. Starting at 6.7 nM, 11-point, 3-fold dilution series were made for each antibody and used to stain HEK293 overexpressing human ROBO2 as described above for the ROBO2 fold selectivity (Example 2). […] In addition to measuring improved binding to human ROBO2, it was important to ensure that high affinity binding to both cynomolgus monkey ROBO2 and rat ROBO2 was maintained. Using HEK293 cells overexpressing either cynomolgus monkey ROBO2 or rat ROBO2, the relative dose-dependent binding of 93H2, Abcs25 and Abcs35 was evaluated as described above. High affinity binding to both cynomolgus monkey and rat ROBO2 was maintained in Abcs25 and Abcs35 (Table 4). […] Briefly, Abcs35 was immobilized to 300 resonance units (RU) on a CM5 chip. Association of ROBO2 Ig1-Ig2-His (ROBO2) was measured over 5 minutes and dissociation was followed for a period of 10 minutes.
Affinity was measured by standard SPR methods as described in Example 3. Briefly, antibodies were immobilized to a specific measure of resonance units (RU) on a CM5 chip. Association of ROBO2 Ig1-Ig2-His (ROBO2) and dissociation will be followed for a period of time.
The molecule B1 had a dissociation constant Kd of 0.145 nM.

As for B2, the Kd came out at 0.217 nM.

On to B3, for which the affinity, expressed as Kd, was 0.217 nM.

In turn, B4 came in with a dissociation constant (Kd) of 0.146 nM.

Regarding B5, the Kd stood at 0.142 nM.

For the molecule B6, the Kd worked out at 0.149 nM.

The target of the next assay is T2, Terbium (Tb) labeled-SNAP tagged ROBO2 …. Briefly: HTRF competition, competitor d2-SLIT2-N, ROBO2 HEK293 cells. On the procedure:
A ROBO2-SLIT2-N homogenous time resolved fluorescence (HTRF) assay was used to identify antibodies that were capable of blocking SLIT2-N binding to ROBO2. In this assay, terbium (Tb) labeled-SNAP tagged ROBO2 expressing HEK293 cells were incubated with 5 nM d2-labeled SLIT-2N in the presence of 1 nM anti-ROBO2 antibodies for 1 hour. After incubation, fluorescence at 665 nm and 620 nm was measured on an Envision multilabel plate reader. […] Maximal signal was defined as the HTRF ratio of Tb-labeled ROBO2 cells with d2-labeled SLIT2-N in the absence of antibody, the minimum signal was defined as the HTRF ratio of Tb-labeled ROBO2 expressing HEK293 cells only. One nanomolar (nM) parental antibody, 93H2, was unable to block the HTRF assay, therefore this concentration was selected to identify clones with a higher affinity than 93H2 (Table 2, HTRF Ratio column). […] Antibodies derived from chain (Abcs series) or CDR shuffling (CTIR-2 series) were evaluated in 11-point, 5-fold dilution series with a top concentration of 1500 nM (Table 2 HTRF IC₅₀).
Neutralization of SLIT2-N binding to ROBO2 was assessed ROBO2:SLIT2-N homogenous time resolved fluorescence (HTRF) assay as described in Example 2. Briefly the HTRF assay was performed as follows: terbium (Tb) labeled-SNAP tagged ROBO2 expressing HEK293 cells were incubated with d2-labeled SLIT-2N in the presence of anti-ROBO2 antibodies for 1 hour. After incubation, fluorescence at 665 nm and 620 nm was measured on an Envision multi-label plate reader. […] Maximal signal was defined as the HTRF ratio of Tb-labeled ROBO2 cells with d2-labeled SLIT2-N in the absence of antibody, the minimum signal was defined as the HTRF ratio of Tb-labeled ROBO2 expressing HEK293 cells only.
Consider B1, for which the IC50 was found to be 0.0745 nM.

Consider B2, for which the IC50 stood at 0.0591 nM.

On to B3, for which the IC50 was 0.0624 nM.

As for B4, the IC50 was 0.0903 nM.

B5 showed a concentration for half-maximal inhibition (IC50) of 0.0752 nM.

B6: the half-inhibitory concentration (IC50) was 0.0796 nM.
